The term stoichiometry N denotes a count of units in the complex or per binding partner.

Experimental findings from PMC3241645 (Nucleic Acids Research, 2011) are described below.

The target in data set [1] is Helicobacter pylori GluRS2 (non-canonical glutamyl-tRNA synthetase 2) (Helicobacter pylori) (UniProt O25360). The data set can be described thus: dynamic light scattering.
For data set [2] the target is unchanged. Kind of data set: nanopore optical interferometry.
Data set [3] deals with the molecule itself. Kind of data set: nanopore optical interferometry.

Regarding “Helicobacter pylori GatCAB (tRNA-dependent amidotransferase) (complex)”, in data set [1], the stoichiometry N worked out at 1. In data set [2], this molecule displayed an average optical path difference at plateau, 0.5 µM GatCAB of 0.6 nm; an average optical path difference at plateau, 2 µM GatCAB of 2.2 nm; an average optical path difference at plateau, 5 µM GatCAB of 5.4 nm; an average optical path difference at plateau, 10 µM GatCAB of 10.4 nm. For the same molecule, the average optical path difference at plateau, 19 µM GatCAB in data set [2] was 16.2 nm.

B1: Helicobacter pylori GluRS2 (non-canonical glutamyl-tRNA synthetase 2) (enzyme, UniProt O25360 1-439, looked up)
chain: MLRFAPSPTGDMHIGNLRAAIFNYIVAKQQYKPFLIRIEDTDKERNIEGKDQEILEILKLMGISWDKLVYQSHNIDYHREMAEKLLKENKAFYCYASAEFLEREKEKAKNEKRPFRYSDEWATLEKDKHHAPVVRLKAPNHAVSFNDAIKKEVKFEPDELDSFVLLRQDKSPTYNFACACDDLLYKISLIIRGEDHVSNTPKQILIQQALGSNDPIVYAHLPIILDEVSGKKMSKRDEASSVKWLLNQGFLPVAIANYLITIGNKVPKEVFSLDEAIEWFSLENLSSSPAHFNLKYLKHLNHEHLKLLDDDKLLELTSIKDKNLLGLLRLFIEECGTLLELREKISLFLEPKDIVKTYENEDFKERCLALFNALTSMDFQAYKDFESFKKEAMRLSQLKGKDFFKPLRILLTGNSHGVELPLIFPYIQSHHQEVLRLKA
As to B1, the binding result in data set [3] was “binds”.
